This is an account of results in paper PMC7961048 (2021).

Non-standard residues stand in square brackets, D forms with d. No end group written: not given here. *: point of attachment. Biotin = O=C1N[C@H]2[C@H](CS[C@H]2CCCCC(=O)*)N1; pT = C[C@@H](OP(=O)(O)O)[C@H](N)C(=O)O; ttds = NCCCOCCOCCOCCCNC(=O)CCC(=O)*

For experiment [1], the target named is T1, full-length human 14-3-3γ fused to the C terminus of MBP (human, UniProt P61981 1-247).
T1 chain: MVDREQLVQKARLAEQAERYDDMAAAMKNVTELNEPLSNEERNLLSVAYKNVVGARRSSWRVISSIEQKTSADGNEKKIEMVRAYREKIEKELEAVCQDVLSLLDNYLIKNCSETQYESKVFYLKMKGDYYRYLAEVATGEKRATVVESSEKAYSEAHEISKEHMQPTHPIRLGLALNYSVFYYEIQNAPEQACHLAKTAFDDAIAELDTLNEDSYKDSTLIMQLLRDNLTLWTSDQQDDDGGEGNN
Briefly: FP; with FSC.

Experiment [2] has as its target T2, unfused 14-3-3ε devoid of the flexible C-terminal tail (human).
T2 chain: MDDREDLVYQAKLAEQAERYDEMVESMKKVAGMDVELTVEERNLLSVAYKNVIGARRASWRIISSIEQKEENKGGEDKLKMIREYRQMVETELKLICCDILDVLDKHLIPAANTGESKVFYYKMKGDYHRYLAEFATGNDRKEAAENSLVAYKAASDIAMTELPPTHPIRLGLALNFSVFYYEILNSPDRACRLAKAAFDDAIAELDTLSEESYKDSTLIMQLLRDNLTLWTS
As to the kind of experiment: FP.

Experiment [3] addresses T3, unfused 14-3-3β devoid of the flexible C-terminal tail (human).
T3 chain: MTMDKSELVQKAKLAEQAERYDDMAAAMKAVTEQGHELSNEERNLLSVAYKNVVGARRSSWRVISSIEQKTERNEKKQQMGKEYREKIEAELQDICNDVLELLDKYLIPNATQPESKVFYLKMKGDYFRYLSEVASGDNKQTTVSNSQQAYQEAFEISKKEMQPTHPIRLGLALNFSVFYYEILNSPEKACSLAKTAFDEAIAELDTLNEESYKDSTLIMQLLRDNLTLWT
Briefly: FP.

Experiment [4] has as its target T4, full-length human 14-3-3η fused to the C terminus of MBP (human, UniProt Q04917 1-246).
T4 chain: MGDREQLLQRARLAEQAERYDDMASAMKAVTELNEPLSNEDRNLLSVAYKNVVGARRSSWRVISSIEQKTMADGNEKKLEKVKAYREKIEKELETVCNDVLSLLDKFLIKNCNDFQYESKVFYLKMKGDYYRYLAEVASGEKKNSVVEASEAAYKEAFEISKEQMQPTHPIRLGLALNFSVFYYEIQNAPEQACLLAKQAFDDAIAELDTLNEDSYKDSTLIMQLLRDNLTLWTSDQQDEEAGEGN
Briefly: FP.

Experiment [5] deals with T5, full-length human 14-3-3ζ fused to the C terminus of MBP (human, UniProt P63104 1-245).
T5 chain: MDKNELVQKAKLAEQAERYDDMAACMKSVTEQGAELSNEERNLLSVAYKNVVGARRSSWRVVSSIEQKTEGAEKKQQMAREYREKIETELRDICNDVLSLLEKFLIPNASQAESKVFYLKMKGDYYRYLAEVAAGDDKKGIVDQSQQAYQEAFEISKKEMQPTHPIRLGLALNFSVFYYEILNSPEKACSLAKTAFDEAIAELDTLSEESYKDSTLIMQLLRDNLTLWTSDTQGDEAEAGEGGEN
As to the kind of experiment: FP.

Experiment [6] deals with T1, full-length human 14-3-3γ fused to the …. Briefly: FP.
For experiment [7], the target named is T5, full-length human 14-3-3ζ fused to the …. Briefly: FP; with FSC.
The target in experiment [8] is T6, full-length human 14-3-3σ fused to the C terminus of MBP (human, UniProt P31947 1-248).
T6 chain: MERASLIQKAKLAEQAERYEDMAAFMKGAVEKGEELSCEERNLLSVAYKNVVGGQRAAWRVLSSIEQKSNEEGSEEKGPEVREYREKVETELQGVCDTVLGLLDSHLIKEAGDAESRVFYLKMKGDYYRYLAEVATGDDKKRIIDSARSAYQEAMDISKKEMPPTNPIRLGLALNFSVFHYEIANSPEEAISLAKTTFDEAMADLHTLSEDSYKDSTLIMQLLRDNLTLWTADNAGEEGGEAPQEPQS
As to the kind of experiment: FP.

Usually Kd stands for the constant that tells how readily two partners part at equilibrium.

B1: HPV16 E6 phospho-PBM peptide p16E6 (peptide)
peptide: {Biotin-ttds}-SSRTRRE[pT]QL
For the molecule B1, the Kd stood at 91.7 µM in experiment [1]; 186 µM in experiment [2]; 148 µM in experiment [3]; 80.5 µM in experiment [4]; 73.6 µM in experiment [5]; 37.2 µM in experiment [6].

B2: HPV18 E6 phospho-PBM peptide p18E6 (peptide)
peptide: {Biotin-ttds}-RLQRRRE[pT]QV
Take B2: the Kd in experiment [7] came to 37.3 µM; in experiment [1], 19.3 µM; in experiment [2], 66.2 µM; in experiment [8], 139 µM; in experiment [3], 42.3 µM; in experiment [5], 22.4 µM. In experiment [6], the Kd was 11.1 µM.
